Results from patent US20260167721A1 (ABLEXIS, published 2026).
Each block holds one binder with its values, some of them ahead of it.

Assays:
[1] = molecular target: CD3 on effector cells (human Pan-T or PBMC) (human, UniProt P07766 23-207; P04234 22-171; P09693 23-182; P20963 22-164); assay: cell-based or functional assay
[2] = molecular target: recombinant CD3 proteins; assay: Octet (BLI), bispecific antibody against recombinant CD3 proteins; Full R^2 0.00
[3] = molecular target: recombinant CD3 proteins; assay: Octet (BLI), bispecific antibody against recombinant CD3 proteins
[4] = molecular target: T1, recombinant human CD3 epsilon/delta heterodimer (human, UniProt P07766 23-126; P04234 22-105); assay: Octet BLI, mAb on FAB2G sensor, hCD3 E/D 200-50 nM; R^2 0.98;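 note: antibodies purified from hybridoma supernatants, measured by Octet binding to recombinant human CD3 protein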
T1 construct: Recombinant protein in solution (200-50 nM) in the Octet assay; also called hCD3 E/D; human CD3E/D

[5] = molecular target: T2, recombinant human CD3 epsilon/gamma heterodimer (human, UniProt P07766 23-126; P09693 23-116); assay: Octet BLI, mAb on FAB2G sensor, hCD3 E/G 200-50 nM; R^2 0.90
T2 construct: Recombinant protein in solution (200-50 nM) in the Octet assay; also called hCD3 E/G
T2 sequence (P07766 23-126, chain 1 of 2): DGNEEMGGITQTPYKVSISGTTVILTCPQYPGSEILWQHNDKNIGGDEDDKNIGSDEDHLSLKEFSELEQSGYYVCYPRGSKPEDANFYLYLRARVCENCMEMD
T2 sequence (P09693 23-116, chain 2 of 2): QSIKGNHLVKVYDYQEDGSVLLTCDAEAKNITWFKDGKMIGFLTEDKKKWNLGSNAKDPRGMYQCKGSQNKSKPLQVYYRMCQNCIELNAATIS

T1 sequence (P07766 23-126, stated change not applied, chain 1 of 2): as the sequence (P07766 23-126, chain 1 of 2) above
T1 sequence (P04234 22-105, stated change not applied, chain 2 of 2): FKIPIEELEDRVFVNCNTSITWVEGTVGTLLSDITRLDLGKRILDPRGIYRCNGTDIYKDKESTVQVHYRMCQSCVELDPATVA
Sequence of CD3 on effector cells (human Pan-T or PBMC) (P07766 23-207, chain 1 of 4): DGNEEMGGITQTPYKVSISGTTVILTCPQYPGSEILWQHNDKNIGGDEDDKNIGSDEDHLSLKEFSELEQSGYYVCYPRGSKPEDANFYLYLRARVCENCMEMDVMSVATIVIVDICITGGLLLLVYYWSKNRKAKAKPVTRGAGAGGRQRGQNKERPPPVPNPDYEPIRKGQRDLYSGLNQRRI
Sequence of CD3 on effector cells (human Pan-T or PBMC) (P04234 22-171, chain 2 of 4): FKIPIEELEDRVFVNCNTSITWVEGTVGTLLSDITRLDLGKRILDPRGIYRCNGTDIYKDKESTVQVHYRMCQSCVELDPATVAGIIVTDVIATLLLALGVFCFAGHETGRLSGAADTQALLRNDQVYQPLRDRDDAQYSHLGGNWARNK
Sequence of CD3 on effector cells (human Pan-T or PBMC) (P09693 23-182, chain 3 of 4): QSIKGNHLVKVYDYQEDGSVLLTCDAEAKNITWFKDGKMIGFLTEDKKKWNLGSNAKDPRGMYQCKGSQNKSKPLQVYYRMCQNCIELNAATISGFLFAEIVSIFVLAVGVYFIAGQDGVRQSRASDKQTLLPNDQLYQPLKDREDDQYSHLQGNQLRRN
Sequence of CD3 on effector cells (human Pan-T or PBMC) (P20963 22-164, chain 4 of 4): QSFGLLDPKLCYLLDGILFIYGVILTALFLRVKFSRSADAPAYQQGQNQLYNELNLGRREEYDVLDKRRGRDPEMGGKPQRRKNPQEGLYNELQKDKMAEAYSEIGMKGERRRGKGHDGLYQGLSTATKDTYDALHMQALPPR

Kd [2]: 0.854 nM
koff [2]: 1.07e-05 s⁻¹
kon [2]: 12500 M⁻¹ s⁻¹
Response [3]: 0.03
B1: CD3 × CD33-BspAb66 (bispecific antibody, human IgG1, kappa)
scFv: EVQLVESGGGLVQPGRSLRLSCAASGFTFDDYAMHWVRQAPGKGLEWVSGISWNSGSIGYADSVKGRFTISRDNAKNSLYLQMNSLRAEDTALYYCAKDSRGYGDYRLGGAYWGQGTLVTVSSGGGGSGGGGSGGGGSGGGGSEIVMTQSPATLSVSPGERATLSCRASQSVSSNLAWYQQKPGQAPRLLIYGASTRATGIPARFSGSGSGTEFTLTISSLQSEDFAVYYCQQYNNWPWTFGQGTKVEIKTSGPGGPDKTHTCPPCPAPEFEGGPSVFLFPPKPKDTLMISRTPEVTCVVVDVSHEDPEVKFNWYVDGVEVHNAKTKPREEQYNSTYRVVSVLTVLHQDWLNGKEYKCKVSNKALPASIEKTISKAKGQPREPQVYTLPPCREEMTKNQVSLWCLVKGFYPSDIAVEWESNGQPENNYKTTPPVLDSDGSFFLYSKLTVDKSRWQQGNVFSCSVMHEALHNHYTQKSLSLSPGK
heavy: EVQLVQSGAEVKKPGSSVKVSCKASGYTITDSNIHWVRQAPGQSLEWIGYIYPYNGGTDYNQKFKNRATLTVDNPTNTAYMELSSLRSEDTAFYYCVNGNPWLAYWGQGTLVTVSSASTKGPSVFPLAPSSKSTSGGTAALGCLVKDYFPEPVTVSWNSGALTSGVHTFPAVLQSSGLYSLSSVVTVPSSSLGTQTYICNVNHKPSNTKVDKRVEPKSCDKTHTCPPCPAPEFEGGPSVFLFPPKPKDTLMISRTPEVTCVVVDVSHEDPEVKFNWYVDGVEVHNAKTKPREEQYNSTYRVVSVLTVLHQDWLNGKEYKCKVSNKALPASIEKTISKAKGQPREPQVCTLPPSREEMTKNQVSLSCAVKGFYPSDIAVEWESNGQPENNYKTTPPVLDSDGSFFLVSKLTVDKSRWQQGNVFSCSVMHEALHNRFTQKSLSLSPGK
light: DIQLTQSPSTLSASVGDRVTITCRASESLDNYGIRFLTWFQQKPGKAPKLLMYAASNQGSGVPSRFSGSGSGTEFTLTISSLQPDDFATYYCQQTKEVPWSFGQGTKVEVKRTVAAPSVFIFPPSDEQLKSGTASVVCLLNNFYPREAKVQWKVDNALQSGNSQESVTEQDSKDSTYSLSSTLTLSKADYEKHKVYACEVTHQGLSSPVTKSFNRGEC
notes: also called CD3δε-specific control antibody scFv-Fc knob/TM; CD3xCD33-BspAb66
RTCC EC50 (nM), KILR HL-60 T Cell Redirection cytotoxic assay with CD33-expressing target cells [1]: 25.4 nM

Kd [4]: 356 nM
Response [4]: 0.03
koff [4]: 0.000184 s⁻¹
kon [4]: 517 M⁻¹ s⁻¹
Kd [5]: < 0.001 nM
B2: ABL-CD3-44 (antibody, V domains shown)
VH: EVQLVESGGGLVQPGGSLRLSCAASGFTFSTYWMSWVRQAPGKGLEWVANIKQDGSEKYYVDSVKGRFTISRDNAKNSLYLQMNSLRAEDTAVYYCATGSFDYWGQGTLVTVSS
VL: QPVLTQPSSHSASSGASVRLTCMLSSGFSVGDFWIRWYQQKPGNPPRYLLFYHSDSNKGQGSGVPSRFSGSNDASANAGILRISGLQPEDEADYYCGTWHSNSKTWVFGGGTKLTVL
notes: Chimeric hybridoma mAb: human V, CH1, upper hinge; mouse middle hinge, CH2, CH3
